Tests used:
[1] = substrate: Cc1cc2nc3c(=O)[nH]c(=O)nc-3n(C[C@H](O)[C@H](O)[C@H](O)COP(=O)(O)O)c2cc1C; assay: purified protein; format: biochemical, Geobacillus thermodenitrificans; details: FMN added to octadecane/NADPH mixture, FMNH2 consumption followed at A455, pH 8.0, 60 °C, varied: cofactor
[2] = substrate: CCCCCCCCCCCCCCCCCC; assay: NADPH consumption, Lineweaver-Burk; format: biochemical, Geobacillus thermodenitrificans; details: 10 mM NADPH, 0.015% Triton X-100, 50 mM Tris-HCl pH 8.0, 60 °C
Description: NADPH consumption, Lineweaver-Burk on LadA (alkane monooxygenase)

B1: LadA (alkane monooxygenase) (Geobacillus thermodenitrificans NG80-2) (protein)
chain: MTKKIHINAFEMNCVGHIAHGLWRHPENQRHRYTDLNYWTELAQLLEKGKFDALFLADVVGIYDVYRQSRDTAVREAVQIPVNDPLMLISAMAYVTKHLAFAVTFSTTYEHPYGHARRMSTLDHLTKGRIAWNVVTSHLPSADKNFGIKKILEHDERYDLADEYLEVCYKLWEGSWEDNAVIRDIENNIYTDPSKVHEINHSGKYFEVPGPHLCEPSPQRTPVIYQAGMSERGREFAAKHAECVFLGGKDVETLKFFVDDIRKRAKKYGRNPDHIKMFAGICVIVGKTHDEAMEKLNSFQKYWSLEGHLAHYGGGTGYDLSKYSSNDYIGSISVGEIINNMSKLDGKWFKLSVGTPKKVADEMQYLVEEAGIDGFNLVQYVSPGTFVDFIELVVPELQKRGLYRVDYEEGTYREKLFGKGNYRLPDDHIAARYRNISSNV
Km [1]: 3.3 ± 0.2 µM | Km [2]: 10360 ± 1600 µM | kcat [2]: 0.0297 ± 0.0033 s⁻¹ | kcat/Km [2]: 2.83 M⁻¹ s⁻¹

B2: LadA (alkane monooxygenase) (Geobacillus thermodenitrificans NG80-2; F10L/N133R) (protein)
chain: MTKKIHINALEMNCVGHIAHGLWRHPENQRHRYTDLNYWTELAQLLEKGKFDALFLADVVGIYDVYRQSRDTAVREAVQIPVNDPLMLISAMAYVTKHLAFAVTFSTTYEHPYGHARRMSTLDHLTKGRIAWRVVTSHLPSADKNFGIKKILEHDERYDLADEYLEVCYKLWEGSWEDNAVIRDIENNIYTDPSKVHEINHSGKYFEVPGPHLCEPSPQRTPVIYQAGMSERGREFAAKHAECVFLGGKDVETLKFFVDDIRKRAKKYGRNPDHIKMFAGICVIVGKTHDEAMEKLNSFQKYWSLEGHLAHYGGGTGYDLSKYSSNDYIGSISVGEIINNMSKLDGKWFKLSVGTPKKVADEMQYLVEEAGIDGFNLVQYVSPGTFVDFIELVVPELQKRGLYRVDYEEGTYREKLFGKGNYRLPDDHIAARYRNISSNV
Km [1]: 3.9 ± 0.3 µM | Km [2]: 2040 ± 200 µM | kcat [2]: 0.0737 ± 0.01 s⁻¹ | kcat/Km [2]: 36.2 M⁻¹ s⁻¹

B3: LadA (alkane monooxygenase) (Geobacillus thermodenitrificans NG80-2; F10L) (protein)
chain: MTKKIHINALEMNCVGHIAHGLWRHPENQRHRYTDLNYWTELAQLLEKGKFDALFLADVVGIYDVYRQSRDTAVREAVQIPVNDPLMLISAMAYVTKHLAFAVTFSTTYEHPYGHARRMSTLDHLTKGRIAWNVVTSHLPSADKNFGIKKILEHDERYDLADEYLEVCYKLWEGSWEDNAVIRDIENNIYTDPSKVHEINHSGKYFEVPGPHLCEPSPQRTPVIYQAGMSERGREFAAKHAECVFLGGKDVETLKFFVDDIRKRAKKYGRNPDHIKMFAGICVIVGKTHDEAMEKLNSFQKYWSLEGHLAHYGGGTGYDLSKYSSNDYIGSISVGEIINNMSKLDGKWFKLSVGTPKKVADEMQYLVEEAGIDGFNLVQYVSPGTFVDFIELVVPELQKRGLYRVDYEEGTYREKLFGKGNYRLPDDHIAARYRNISSNV
Km [1]: 3.1 ± 0.3 µM | Km [2]: 6980 ± 500 µM | kcat [2]: 0.036 ± 0.005 s⁻¹ | kcat/Km [2]: 5.17 M⁻¹ s⁻¹
